# Test results taken from patent US20250011363A1, “OPTIMIZED SHORTENED PEPTIDE THAT BINDS TO ACETYLCHOLINE RECEPTOR, AND USE THEREOF” (SKINMED CO., LTD., priority 2021, published 2025).
# Biological target: acetylcholine receptor
# Experiment: SPR, AchR on chip, peptide 10 uM
row,Binding affinity (RU),Binder
1,62,RWIYR [5mer-201]
2,60,RRLQK [5mer-36]
3,82,KVISK [5mer-41]
4,85,RRYCR [5mer-332]
5,67,KVYYR [5mer-210]
6,70,KSQLR [5mer-30]
7,87,KWVRK [5mer-339]
8,80,RWQYK [5mer-35]
9,78,RGVRR [5mer-209]
10,52,RWYRR [5mer-341]
11,79,RGIQR [5mer-331]
12,86,RWQLR [5mer-330]
13,70,KGVRR [5mer-47]
14,62,RVYLR [5mer-48]
15,67,RVLQR [5mer-333]
16,63,KGFCR [5mer-29]
17,60,KSFSR [5mer-343]
18,61,RVQRK [5mer-509]
19,56,KSLTR [5mer-335]
20,51,KGYRR [5mer-340]
21,86,RQQRR [5mer-345]
22,61,KRVSK [5mer-503]
23,84,RRISR [5mer-502]

row,Binding affinity (RU),Binder
1,72,RRLSR [5mer-37]
2,67,KGYLR [5mer-27]
3,86,RVFQR [5mer-45]
4,75,RWYYR [5mer-205]
5,65,RRLQR [5mer-31]
6,57,KGISK [5mer-346]
7,79,RRFCR [5mer-329]
8,78,KRICR [5mer-347]
9,67,KGLQK [5mer-508]
10,71,RQIYR [5mer-505]
11,59,RSRTR [5mer-44]
12,53,KSFYR [5mer-43]
13,59,RRISK [5mer-33]
14,51,RGRLR [5mer-506]
15,76,KRQCK [5mer-46]
16,80,KRQTK [5mer-348]
17,53,RGYCK [5mer-38]
18,82,KRIRK [5mer-34]
19,55,KRVRR [5mer-200]
20,65,RQQQR [5mer-26]
21,84,KWVQK [5mer-507]
22,52,KQFQR [5mer-344]
23,78,KLQRK [5mer-501]

row,Binding affinity (RU),Binder
1,64,KRFYK [5mer-334]
2,69,KVYQR [5mer-342]
3,67,KGRSR [5mer-337]
4,57,KLQLR [5mer-206]
5,75,RQLSR [5mer-32]
6,61,RWVLK [5mer-328]
7,67,KSVCR [5mer-40]
8,72,KQIQR [5mer-504]
9,80,KLICR [5mer-208]
10,63,KSLQK [5mer-500]
11,72,KQVRR [5mer-207]
12,61,RWILR [5mer-338]
13,78,RQLTR [5mer-203]
14,84,KRYQR [5mer-199]
15,65,KWYRR [5mer-202]
16,84,RQFQR [5mer-204]
17,68,RRFTK [5mer-326]
18,83,RQRLR [5mer-42]
19,83,KSVSR [5mer-336]
20,76,RVLTK [5mer-499]
21,74,RLLSR [5mer-28]
22,86,RVLCR [5mer-327]
23,67,KQVSR [5mer-39]

# Biological target: acetylcholine receptor
# Experiment: SPR, receptor immobilized on CM5 chip, peptide 10 uM
row,Binding affinity (RU),Binder
1,149,KSVCRR [6mer-2-461]
2,139,KLFSRK [6mer-2-459]
3,142,RLLTRR [6mer-2-466]
4,139,RSQCRK [6mer-2-460]
5,145,KQICKR [6mer-2-462]
6,122,RRFQRR [6mer-2-458]
7,124,KLLTRR [6mer-2-463]
8,142,KQYSRR [6mer-2-467]
9,135,KSFRKK [6mer-2-464]
10,122,KGVSKR [6mer-2-465]
